Data on 16 proteins can be found in the PETadex activity labels (doi:10.1002/cbic.201800097).

Substrate in data set [1]: PET
In words: Proxy for plastic degradation [Released monomer concentration (HPLC/LC-MS) (TPA)]. Particulars: pH 9.

Substrate in data set [2]: PET
Put plainly: Proxy for plastic degradation [Released monomer concentration (HPLC/LC-MS) (MHET)]. The settings on record: pH 9.

Substrate in a further data set: BHET
Put plainly: Proxy for plastic degradation [Released monomer concentration (HPLC/LC-MS) (MHET+TPA)]. Particulars: pH 7.5.

B1: unnamed (protein)
chain: MNFPRASRLMQAAVLGGLMAVSAAATAQTNPYARGPNPTAASLEASAGPFTVRSFTVSRPSGYGAGTVYYPTNAGGTVGAIAIVPGYTARQSSIKWWGPRLASHGFVVITIDTNSTLDQPSSRSSQQMAALRQVASLNGTSSSPIYGKVDTARMGVMGWSMGGGGSLISAANNPSLKAAAPQAPWDSSTNFSSVTVPTLIFACENDSIAPVASSALPIYDSMSRNAKQFLEINGGSHSCANSGNSNQALIGKKGVAWMKRFMDNDTRYSTFACENPNSTRVSDFRTANCS
For B1, the “Proxy for plastic degradation” value was found to be 0 nM with PET [1], 2 nM in the data set with PET [2] and 0.42 µM with BHET.

B2: unnamed (protein)
chain: MNFPRASRLMQAAVLGGLMAVSAAATAQTNPYARGPNPTAASLEASAGPFTVRSFTVSRPSGYGAGTVYYPTNAGGTVGAIAIVPGYTARQSSIKWWGPRLASHGFVVITIDTNSTLDQPSSRSSQQMAALRQVASLNGTSSSPIYGKVDTARMGVMGWSMGGGGSLISAANNPSLKAAIPQAPWDSSTNFSSVTVPTLIFACENDSIAPVNSSALPIYDSMSRNAKQFLEINGGSHSCANSGNSNQALIGKKGVAWMKRFMDNDTRYSTFACENPNSTRVSDFRTANCS
B2: the entries for the “Proxy for plastic degradation” value with PET [1], with PET [2] and with BHET were 10.5 nM, 13.4 nM and 0.31 µM, respectively.

B3: unnamed (protein)
chain: MNFPRASRLMQAAVLGGLMAVSAAATAQTNPYARGPNPTAASLEASAGPFTVRSFTVSRPSGYGAGTVYYPTNAGGTVGAIAIVPGYTARQSSIKWWGPRLASHGFVVITIDTNSTLDQPSSRSSQQMAALRQVASLNGTSSSPIYGKVDTARMGVMGWSMGGGGSLISAANNPSLKAAAPQAPWDSSTNFSSVTVPTLIFACENDSIAPVNSSALPIYDSMSRNAKQFLEINGGSASCANSGNSNQALIGKKGVAWMKRFMDNDTRYSTFACENPNSTRVSDFRTANCS
B3: in the data set with BHET, the “Proxy for plastic degradation” value turned out to be 0.03 µM.

B4: unnamed (protein)
chain: NPYARGPNPTAASLEASAGPFTVRSFTVSRPSGYGAGTVYYPTNAGGTVGAIAIVPGYTARQSSIKWWGPRLASHGFVVITIDTNSTLDQPSSRSSQQMAALRQVASLNGTSSSPIYGKVDTARMGVMGWSMGGGGSLISAANNPSLKAAAPQAPWDSSTNFSSVTVPTLIFACENDSIAPVNSSALPIYDSMSRNAKQFLEINGGSHSAANSGNSNQALIGKKGVAWMKRFMDNDTRYSTFACENPNSTRVSDFRTANCS
With B4, the entries for the “Proxy for plastic degradation” value with PET [1], with PET [2] and in the data set with BHET were 0 nM, 0 nM and 0.22 µM, respectively.

B5: unnamed (protein)
chain: NPYARGPNPTAASLEASAGPFTVRSFTVSRPSGYGAGTVYYPTNAGGTVGAIAIVPGYTARQSSIKWWGPRLASHGFVVITIDTNSTLDQPSSRSSQQMAALRQVASLNGTSSSPIYGKVDTARMGVMGWAMGGGGSLISAANNPSLKAAAPQAPWDSSTNFSSVTVPTLIFACENASIAPVNSSALPIYDSMSRNAKQFLEINGGSASCANSGNSNQALIGKKGVAWMKRFMDNDTRYSTFACENPNSTRVSDFRTANCS
B5: the “Proxy for plastic degradation” value with PET [1] and with PET [2] was 0 nM each time.

B6: unnamed (protein)
chain: NPYARGPNPTAASLEASAGPFTVRSFTVSRPSGYGAGTVYYPTNAGGTVGAIAIVPGYTARQSSIKWWGPRLASHGFVVITIDTNSTLDQPSSRSSQQMAALRQVASLNGTSSSPIYGKVDTARMGVMGHSMGGGGSLISAANNPSLKAAAPQAPWDSSTNFSSVTVPTLIFACENDSIAPVNSSALPIYDSMSRNAKQFLEINGGSHSCANSGNSNQALIGKKGVAWMKRFMDNDTRYSTFACENPNSTRVSDFRTANCS
For the protein B6, the “Proxy for plastic degradation” value with PET [1] (part of the chain shown) was 20 nM; with PET [2] (part of the chain shown) it was 20 nM; with BHET (part of the chain shown), 1.94 µM.

B7: unnamed (protein)
chain: NPYARGPNPTAASLEASAGPFTVRSFTVSRPSGYGAGTVYYPTNAGGTVGAIAIVPGFTARQSSIKWWGPRLASHGFVVITIDTNSTLDQPSSRSSQQMAALRQVASLNGTSSSPIYGKVDTARMGVMGWSMGGGGSLISAANNPSLKAAAPQAPWDSSTNFSSVTVPTLIFACENDSIAPVNSSALPIYDSMSRNAKQFLEINGGSHSCANSGNSNQALIGKKGVAWMKRFMDNDTRYSTFACENPNSTRVSDFRTANCS
For B7, the “Proxy for plastic degradation” value with PET [1] was found to be 0 nM; with PET [2], 0 nM; in the data set with BHET, 0.54 µM.

B8: unnamed (protein)
chain: NPYARGPNPTAASLEASAGPFTVRSFTVSRPSGYGAGTVYYPTNAGGTVGAIAIVPGATARQSSIKWWGPRLASHGFVVITIDTNSTLDQPSSRSSQQMAALRQVASLNGTSSSPIYGKVDTARMGVMGWSMGGGGSLISAANNPSLKAAAPQAPWDSSTNFSSVTVPTLIFACENDSIAPVNSSALPIYDSMSRNAKQFLEINGGSHSCANSGNSNQALIGKKGVAWMKRFMDNDTRYSTFACENPNSTRVSDFRTANCS
B8: the “Proxy for plastic degradation” value in the data set with PET [1] is 21 nM; with BHET it was 1.09 µM.

B9: unnamed (protein)
chain: NPYARGPNPTAASLEASAGPFTVRSFTVSRPSGYGAGTVYYPTNAGGTVGAIAIVPGYTARQSSIKWWGPRLASHGFVVITIDTNSTLDQPSSRSSQQMAALRQVASLNGTSSSPIYGKVDTARMGVMGWSMGGGGSLISAANNPSLKAAAPQAPWDSSTNFSSVTVPTLIFACENDSAAPVNSSALPIYDSMSRNAKQFLEINGGSHSCANSGNSNQALIGKKGVAWMKRFMDNDTRYSTFACENPNSTRVSDFRTANCS
Turning to B9, the “Proxy for plastic degradation” value with BHET was 0.54 µM.

B10: unnamed (protein)
chain: NPYARGPNPTAASLEASAGPFTVRSFTVSRPSGYGAGTVYYPTNAGGTVGAIAIVPGYTARQSSIKWWGPRLASHGFVVITIDTNSTLDQPSSASSQQMAALRQVASLNGTSSSPIYGKVDTARMGVMGWSMGGGGSLISAANNPSLKAAAPQAPWDSSTNFSSVTVPTLIFACENDSIAPVNSSALPIYDSMSRNAKQFLEINGGSHSCANSGNSNQALIGKKGVAWMKRFMDNDTRYSTFACENPNSTRVSDFRTANCS
As to B10, the “Proxy for plastic degradation” value with PET [2] was 1 nM; with BHET, 0.6 µM.

B11: unnamed (protein)
chain: NPYARGPNPTAASLEASAGPFTVRSFTVSRPSGYGAGTVYYPTNAGGTVGAIAIVPGYTARQSSIKWWGPRLASHGFVVITIDTNSTLDQPSSRSSQQMAALRQVASLNGTSSSPIYGKVDTARMGVMGWSMGGGGSLISAANNPSLKAAAPQAPWDSSTNFSSVTVPTLIFAAENDSIAPVNSSALPIYDSMSRNAKQFLEINGGSHSCANSGNSNQALIGKKGVAWMKRFMDNDTRYSTFACENPNSTRVSDFRTANCS
B11: the “Proxy for plastic degradation” value with BHET was 0.26 µM.

B12: unnamed (protein)
chain: NPYARGPNPTAASLEASAGPFTVRSFTVSRPSGYGAGTVYYPTNAGGTVGAIAIVPGYTARQSSIKWWGPRLASHGFVVITIDTNSTLDQPSSRSSQQMAALRQVASLNGTSSSPIYGKVDTARMGVMGWSMGGGGSLISAANNPSLKAAAPQAPWDSSTNFSSVTVPTLIFAAENDSIAPVNSSALPIYDSMSRNAKQFLEINGGSHSAANSGNSNQALIGKKGVAWMKRFMDNDTRYSTFACENPNSTRVSDFRTANCS
B12: the “Proxy for plastic degradation” value with PET [1] (part of the chain shown) is 0 nM; in the data set with PET [2] (part of the chain shown), 0.5 nM.

B13: unnamed (protein)
chain: NPYARGPNPTAASLEASAGPFTVRSFTVSRPSGYGAGTVYYPTNAGGTVGAIAIVPGYTARQSSIKWWGPRLASHGFVVITIDTNSTLDQPSSRSSQQMAALRQVASLNGTSSSPIYGKVDTARMGVMGWSMGGGGSLISAANNPSLKAAAPQAPWDSSTNFSSVTVPTLIFACENDSIAPVNSHALPIYDSMSRNAKQFLEINGGSHSCANSGNSNQALIGKKGVAWMKRFMDNDTRYSTFACENPNSTRVSDFRTANCS
As to B13, the “Proxy for plastic degradation” value in the data set with BHET was 0.45 µM.

B14: unnamed (protein)
chain: NPYARGPNPTAASLEASAGPFTVRSFTVSRPSGYGAGTVYYPTNAGGTVGAIAIVPGYTARQSSIKWWGPRLASHGFVVITIDTNSTLDQPSSRSSQQMAALRQVASLNGTSSSPIYGKVDTARMGVMGWSMGGGGSLISAANNPSLKAAAPQAPWDSSTNFSSVTVPTLIFACENDSIAPVNSSALPIYDSMSRNAKQFLEINGGSHFCANSGNSNQALIGKKGVAWMKRFMDNDTRYSTFACENPNSTRVSDFRTANCS
As to B14, the “Proxy for plastic degradation” value with PET [1] (part of the chain shown) came to 3.5 nM; with PET [2] (part of the chain shown) it was 4 nM; in the data set with BHET (part of the chain shown), 1.6 µM.

B15: unnamed (protein)
chain: NPYARGPNPTAASLEASAGPFTVRSFTVSRPSGYGAGTVYYPTNAGGTVGAIAIVPGYTARQSSIKWWGPRLASHGFVVITIDTNSTLDQPSSRSSQQMAALRQVASLNGTSSSPIYGKVDTARMGVMGWSAGGGGSLISAANNPSLKAAAPQAPWDSSTNFSSVTVPTLIFACENDSIAPVNSSALPIYDSMSRNAKQFLEINGGSHSCANSGNSNQALIGKKGVAWMKRFMDNDTRYSTFACENPNSTRVSDFRTANCS
Regarding B15, the “Proxy for plastic degradation” value in the data set with BHET was 0.57 µM.

B16: unnamed (protein)
chain: NPYARGPNPTAASLEASAGPFTVRSFTVSRPSGYGAGTVYYPTNAGGTVGAIAIVPGYTARQSSIKWWGPRLASHGFVVITIDTNSTLDQPSSRSSQQMAALRQVASLNGTSSSPIYGKVDTARMGVMGWSMGGGGSLISAANNPSLKAAAPLAPWDSSTNFSSVTVPTLIFACENDSIAPVNSSALPIYDSMSRNAKQFLEINGGSHSCANSGNSNQALIGKKGVAWMKRFMDNDTRYSTFACENPNSTRVSDFRTANCS
As to B16, the “Proxy for plastic degradation” value was found to be 8 nM with PET [2] and 1.26 µM with BHET.
